How the values were obtained:
Experiment in all cases: purified protein
Settings in all cases: 0.25 mM NADPH, 50 mM sodium phosphate pH 7.0, 30 °C, reduction
purified protein [1] = substrate: O=CC(O)CO
purified protein [2] = substrate: CC(=O)C=O; format: biochemical, Zea mays
purified protein [3] = substrate: O=Cc1ccc([N+](=O)[O-])cc1; format: biochemical, Zea mays

B1: ZmAKR4C13 (Zea mays) (protein)
chain: MASAQAVGQGERGHFVLKSGHTIPAVGLGTWRAGSDTAHSVRTAIAEAGYRHVDTAAQYGVEKEVGRGLKAAMEGGINRKDLFVTSKLWCTELAPDRVRPALEKTLKDLQLDYLDLYLIHWPFRLKDGAHMPPEAGEVLEFDMEGVWREMEGLVKDGLVKDIGVCNYTVAKLNRLMRSANVPPAVCQMEMHPGWKNDRIFEACKKHGIHVTAYSPLGSSEKNLAHDPLVEKVANKLDKTPGQVLLRWALQRGTSVIPKSTRDERIKENIQVFGWEIPEEDFRALCGIKDEKRVLTGEELFVNKTHGPYKSATEVWDHED
notes: monomer
Km (purified protein [1]): 1.46 ± 0.29 mM | kcat (purified protein [1]): 18 s⁻¹ | kcat/Km (purified protein [1]): 12400 M⁻¹ s⁻¹ | Km (purified protein [2]): 0.94 ± 0.08 mM | kcat (purified protein [2]): 2.21 s⁻¹ | kcat/Km (purified protein [2]): 2350 M⁻¹ s⁻¹ | Km (purified protein [3]): 0.10 ± 0.02 mM | kcat (purified protein [3]): 0.65 s⁻¹ | kcat/Km (purified protein [3]): 6510 M⁻¹ s⁻¹

— publication PMC12302338, “Functional genomics and structural insights into maize aldo-keto reductase-4 family: Stress metabolism and substrate specificity in embryos” (The Journal of Biological Chemistry, 2025)
